Assay results: patent US20140161798A1 (Merck Sharp & Dohme, published 2014)
Values belong to the molecule of their own block, whether it stands above or below them.

What was measured:
[1] = target: Purified PCSK9 carrying a C-terminal FLAG tag (UniProt Q8NBP7); assay: AlphaScreen PCSK9-FLAG/His-LDLR; log[antibody] ug/ml 0.394711
[2] = target: Purified PCSK9 carrying a C-terminal FLAG tag (UniProt Q8NBP7); assay: AlphaScreen PCSK9-FLAG/His-LDLR; log[antibody] ug/ml -2.46802
[3] = target: Purified PCSK9 carrying a C-terminal FLAG tag (UniProt Q8NBP7); assay: AlphaScreen PCSK9-FLAG/His-LDLR; log[antibody] ug/ml -0.55953
[4] = target: Purified PCSK9 carrying a C-terminal FLAG tag (UniProt Q8NBP7); assay: AlphaScreen PCSK9-FLAG/His-LDLR; log[antibody] ug/ml 0.871832
[5] = target: Purified PCSK9 carrying a C-terminal FLAG tag (UniProt Q8NBP7); assay: AlphaScreen PCSK9-FLAG/His-LDLR; log[antibody] ug/ml -0.08241
[6] = target: Purified PCSK9 carrying a C-terminal FLAG tag (UniProt Q8NBP7); assay: AlphaScreen PCSK9-FLAG/His-LDLR; log[antibody] ug/ml -2.94514
[7] = target: Purified PCSK9 carrying a C-terminal FLAG tag (UniProt Q8NBP7); assay: AlphaScreen PCSK9-FLAG/His-LDLR; log[antibody] ug/ml 1.826075
[8] = target: Purified PCSK9 carrying a C-terminal FLAG tag (UniProt Q8NBP7); assay: AlphaScreen PCSK9-FLAG/His-LDLR; log[antibody] ug/ml -0.08241; remark: listed apart in the source
[9] = target: Purified PCSK9 carrying a C-terminal FLAG tag (UniProt Q8NBP7); assay: AlphaScreen PCSK9-FLAG/His-LDLR; log[antibody] ug/ml 0.871832; remark: listed apart in the source
bacu-PCSK9-WT = bacu-PCSK9-WT (UniProt Q8NBP7); assay: cell-based or functional assay
[10] = target: Purified PCSK9 carrying a C-terminal FLAG tag (UniProt Q8NBP7); assay: AlphaScreen PCSK9-FLAG/His-LDLR; log[antibody] ug/ml 1.348954
[11] = target: Purified PCSK9 carrying a C-terminal FLAG tag (UniProt Q8NBP7); assay: AlphaScreen PCSK9-FLAG/His-LDLR; log[antibody] ug/ml -1.9909
[12] = target: Purified PCSK9 carrying a C-terminal FLAG tag (UniProt Q8NBP7); assay: AlphaScreen PCSK9-FLAG/His-LDLR; log[antibody] ug/ml -1.51377
[13] = target: Purified PCSK9 carrying a C-terminal FLAG tag (UniProt Q8NBP7); assay: AlphaScreen PCSK9-FLAG/His-LDLR; log[antibody] ug/ml -2.46802; remark: listed apart in the source
[14] = target: Purified PCSK9 carrying a C-terminal FLAG tag (UniProt Q8NBP7); assay: AlphaScreen PCSK9-FLAG/His-LDLR; log[antibody] ug/ml -1.9909; remark: listed apart in the source
[15] = target: Purified PCSK9 carrying a C-terminal FLAG tag (UniProt Q8NBP7); assay: AlphaScreen PCSK9-FLAG/His-LDLR; log[antibody] ug/ml -0.55953; remark: listed apart in the source
[16] = target: Purified PCSK9 carrying a C-terminal FLAG tag (UniProt Q8NBP7); assay: AlphaScreen PCSK9-FLAG/His-LDLR; log[antibody] ug/ml -1.03665
[17] = target: Purified PCSK9 carrying a C-terminal FLAG tag (UniProt Q8NBP7); assay: AlphaScreen PCSK9-FLAG/His-LDLR; log[antibody] ug/ml -1.51377; remark: listed apart in the source
[18] = target: Purified PCSK9 carrying a C-terminal FLAG tag (UniProt Q8NBP7); assay: AlphaScreen PCSK9-FLAG/His-LDLR; log[antibody] ug/ml 1.348954; remark: listed apart in the source
[19] = target: Purified PCSK9 carrying a C-terminal FLAG tag (UniProt Q8NBP7); assay: AlphaScreen PCSK9-FLAG/His-LDLR; log[antibody] ug/ml -1.03665; remark: listed apart in the source
[20] = target: Purified PCSK9 carrying a C-terminal FLAG tag (UniProt Q8NBP7); assay: AlphaScreen PCSK9-FLAG/His-LDLR; log[antibody] ug/ml 0.394711; remark: listed apart in the source
[21] = target: Purified PCSK9 carrying a C-terminal FLAG tag (UniProt Q8NBP7); assay: AlphaScreen PCSK9-FLAG/His-LDLR; log[antibody] ug/ml 1.826075; remark: listed apart in the source
[22] = target: T1, Purified PCSK9 carrying a C-terminal FLAG tag (UniProt Q8NBP7 31-692); assay: AlphaScreen, inhibition of PCSK9-Flag/His-tagged LDL receptor interaction; average of two measurements
T1 construct: also called PCSK9-FLAG; PCSK9-Flag; not shown: C-terminal FLAG tag
Description: This technique required that “donor” and “acceptor” beads be brought into proximity via protein—protein interaction, resulting in increased luminescence (Ullman et al., Proc. Nat. Acad. Sci. (1994) 91:5426-5430). […] About 2.5 μl of biotinylated anti-Flag-M2 antibody (1.8 μg/ml) was added and the mixture incubated for 1 hour. Afterward 5 μl of streptavidin donor bead and nickel chelate acceptor bead (1:1 mixture) was added and the assay incubated overnight. AlphaScreen signal (counts per second) was analyzed using an EnVision microplate reader (Perkin-Elmer). All data points were determined in triplicate. Assays were carried out at 23° C. in buffer containing 25 mM HEPES, 0.1 M NaCl, pH 7.4, 0.1% BSA. The inhibition assays were determined similarly with slight adjustments to assay volumes and protein concentrations.

bacu-PCSK9-WT, sequence (Q8NBP7 31-692 limits assumed): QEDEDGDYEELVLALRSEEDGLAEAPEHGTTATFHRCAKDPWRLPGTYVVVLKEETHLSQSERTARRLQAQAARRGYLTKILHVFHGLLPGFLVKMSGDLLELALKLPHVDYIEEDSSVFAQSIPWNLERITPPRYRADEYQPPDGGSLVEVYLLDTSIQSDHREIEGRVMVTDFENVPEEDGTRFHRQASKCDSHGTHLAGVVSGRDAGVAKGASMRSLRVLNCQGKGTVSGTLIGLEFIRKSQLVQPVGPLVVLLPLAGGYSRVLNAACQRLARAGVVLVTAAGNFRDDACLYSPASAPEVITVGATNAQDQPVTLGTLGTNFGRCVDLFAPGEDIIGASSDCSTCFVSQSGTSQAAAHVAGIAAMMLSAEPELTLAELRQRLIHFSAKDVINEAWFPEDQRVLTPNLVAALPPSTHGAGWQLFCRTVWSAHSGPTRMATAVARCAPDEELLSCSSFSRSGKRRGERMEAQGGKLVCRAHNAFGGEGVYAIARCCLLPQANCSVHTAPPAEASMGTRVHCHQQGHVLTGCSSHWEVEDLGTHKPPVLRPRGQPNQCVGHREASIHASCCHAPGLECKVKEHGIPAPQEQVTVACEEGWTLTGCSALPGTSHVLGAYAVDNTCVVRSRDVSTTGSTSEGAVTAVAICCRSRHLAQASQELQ
Purified PCSK9 carrying a C-terminal FLAG tag (UniProt Q8NBP7), sequence (Q8NBP7 31-692 limits assumed): as above
T1 sequence (Q8NBP7 31-692 limits assumed): as above

- AlphaScreen mean counts [1]: 60100 counts
- AlphaScreen mean counts [2]: 132000 counts
- AlphaScreen mean counts [3]: 128000 counts
- AlphaScreen mean counts [4]: 33300 counts
- AlphaScreen mean counts [5]: 70000 counts
- AlphaScreen mean counts [6]: 85400 counts
- AlphaScreen mean counts [7]: 2100 counts
- AlphaScreen mean counts [8]: 94800 counts
- AlphaScreen mean counts [9]: 55600 counts
- DiI-LDL uptake by HepG2 cells, 6 hour incubation, [PCSK9] 1.67 ug/ml, antibody 100 ug/ml (fluorescence intensity) (bacu-PCSK9-WT): 2.95e+07
- DiI-LDL uptake by HepG2 cells, 6 hour incubation, [PCSK9] 5 ug/ml, antibody 100 ug/ml (fluorescence intensity) (bacu-PCSK9-WT): 2.56e+07
- DiI-LDL uptake by HepG2 cells, 6 hour incubation, [PCSK9] 15 ug/ml, antibody 100 ug/ml (fluorescence intensity) (bacu-PCSK9-WT): 2.24e+07
- DiI-LDL uptake by HepG2 cells, 18 hour incubation, [PCSK9] 1.67 ug/ml, antibody 100 ug/ml (fluorescence intensity) (bacu-PCSK9-WT): 3.2e+07
- DiI-LDL uptake by HepG2 cells, 18 hour incubation, [PCSK9] 5 ug/ml, antibody 100 ug/ml (fluorescence intensity) (bacu-PCSK9-WT): 2.59e+07
- DiI-LDL uptake by HepG2 cells, 18 hour incubation, [PCSK9] 15 ug/ml, antibody 100 ug/ml (fluorescence intensity) (bacu-PCSK9-WT): 2.18e+07
- AlphaScreen mean counts [10]: 25800 counts
- AlphaScreen mean counts [11]: 81500 counts
- AlphaScreen mean counts [12]: 85600 counts
- AlphaScreen mean counts [13]: 80600 counts
- AlphaScreen mean counts [14]: 130000 counts
- AlphaScreen mean counts [15]: 77400 counts
- AlphaScreen mean counts [16]: 79800 counts
- AlphaScreen mean counts [17]: 126000 counts
- AlphaScreen mean counts [18]: 12300 counts
- AlphaScreen mean counts [19]: 124000 counts
- AlphaScreen mean counts [20]: 93500 counts
- AlphaScreen mean counts [21]: 6840 counts
Molecule: Rabbit anti-murine-PCSK9 polyclonal antibody, Cayman Chemical Cat.#10008811 (anti-PCSK9-catalytic domain antibody)

- IC50 [22]: 0.049 nM
B1: 1F11/1G11 anti-PCSK9 antibody (IgG2a) (antibody, V domains shown)
VH: EVQLQQSGPELVKPGASVKISCKVSGYTFTDYYMNWVKQSHGKSLEWIGDINPNNGGAIYNQKFKGKATLTVDKSSSIAYMELRSLTSEDSAVYYCTSGIITEIAEDFWGQGTTLTVSS
VL: DIVMTQSQKFMSTSVGDRVSVTCKASQNVGTNVVWYQQKPGQSPKALIHSASYRYSGVPDRFKGSGSGTDFTLTITNVQSEDLAGFFCQQYKTYPYTFGGGTQLEIKR
notes: also called anti-human PCSK9 Antibody, 1F11/1G11
